Columns and labels:
[1] = tested on: G44P (Bacillus subtilis bacteriophage SPP1); experiment: EMSA; conditions: 1 mM EDTA, EMSA: 50 mM Tris-HCl pH 7.5, 50 mM NaCl, 50 ng/ul BSA, 5% glycerol, 0.2 nM DNA, 37 C, 15 min (20 min in Fig 4 legend), 6% PAGE
[2] = molecular target: gene 44 product (G44P) of Bacillus subtilis bacteriophage SPP1 (Bacillus subtilis bacteriophage SPP1); experiment: SEC; FPLC gel filtration on Superdex 75 in buffer A (50 mM phosphate pH 7.5, 5% glycerol, 1 mM EDTA) with 1 M NaCl, 0.5 ml/min; 30 µg protein in 200 µl; mass from a standard curve of Kav versus log10 of molecular mass

Substance	K half [1] [nM]	also measured
CGCAAGCGACAGGAACCTCGAGGAATTCAACCACCGCTCAACTCAACTGCAGTCTAGACTCGAGGTTCCTGTCGCTTGCG (double strand) [80-bp dsDNA]	–	K half ([1]; complexes unstable in gel): 48 nM
DL-D (D-loop)	5	–
CGCAAGCGACAGGAACCTCGAGAAGCTTCCGGTAGCAGCCTGAGCGGTGGTTGAATTCCTCGAGGTTCCTGTCGCTTGCG / CGCAAGCGACAGGAACCTCGAGGAATTCAACCACCGCTCAACTCAACTGCAGTCTAGACTCGAGGTTCCTGTCGCTTGCG / CGCAAGCGACAGGAACCTCGAGTCTAGACTGCAGTTGAGTCCTTGCTAGGACGGATCCCTCGAGGTTCCTGTCGCTTGCG / CGCAAGCGACAGGAACCTCGAGGGATCCGTCCTAGCAAGGGGCTGCTACCGGAAGCTTCTCGAGGTTCCTGTCGCTTGCG [HJ-J3]	10	–
gene 44 product (G44P) of Bacillus subtilis bacteriophage SPP1 (enzyme)	–	stoichiometry N [2]: 2

Reference: article PMC3485210
